T1: Aβ(12-42) globulomer (human)
T1 construct: Non-covalent oligomer; the subunit number was not measured
T1 peptide: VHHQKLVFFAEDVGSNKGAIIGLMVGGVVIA

B1: murine monoclonal anti-Aβ(20-42) globulomer antibody m10B3 (antibody, V domains shown)
VH: EVKLVESGGGLVQPGGSRKLSCAASGFTFSDYEMVWVRQAPGEGLEWVAYISSGSRTIHYADTVKGRFTISRDNPKNTLFLQMSSLRSEDTAMYYCARTLLRLHFDYWGQGTILTVSS
VL: not shown
notes: Murine hybridoma antibody from mice immunized with Aβ(20-42) globulomer; also called mAb 10B3; Anti-Aβ monoclonal antibody clone m10B3
B2: murine monoclonal anti-Aβ(20-42) globulomer antibody m4C9 (antibody, V domains shown)
VH: QVQLQQPGAELVKPGASVKLSCKAPGYTFTSYWMHWVKQRPGQGLEWIGRIDPKSGDTKYTEKFKSKATLTVDKPSSTAYMQLSSLTSEDSAVYYCTTMSKLSGTHAWFAYWGQGTLVTVSA
VL: DIKMTQSPSSMYASLGERVTITCKASQDINSYLTWFQQKPGKSPKTLIYRANRLVDGVPSRFSGSGSGQDYSLTISSLEYEDMGIYYCLQYDEFPLTFGAGTKLELK
notes: Murine hybridoma antibody from mice immunized with Aβ(20-42) globulomer; also called mAb 4C9; Anti-Aβ monoclonal antibody clone m4C9
B3: Anti-Aβ monoclonal antibody clone 6E10 (Covance cat. no. SIG-39320) (antibody, V domains shown)
VH: EVQLQQSGAELVKPGASVKLCTASGFNIKDTYIHWVKQRPEQGLEWIGRFDPVNVNTRYDSRFRGKATITSDASSNTAYLHLNSLTSEDTAVYYCSRSYYNGRRRFTYWGQGTLVTVSA
VL: DIVMTQSPSSLTVTAGEKVALTCKASQSLLSSGNQKNYLTWYQQKPGQPPKLLIYWASIRESGVPDRFTGSGSGTFFTLTISSVQAEDLAVYYCQNDYNYPFTFGSGTKLEIK

Experiments:
Assay in all cases: dot blot with densitometry; Aβ form dotted on nitrocellulose in serial dilution, antibody 0.2 µg/ml; higher value = weaker recognition
Aβ(1-42) globulomer = biological target: T2, Aβ(1-42) globulomer (human, UniProt P05067 672-713)
T2 construct: the number was not measured for this preparation; also called 38/48-kDa Aβ(1-42) globulomer; Aβ(1-42) globular oligomer
Experimental: (§1) The dot blot was developed with 10 ml BM Blue POD Substrate for 10 min. The development was stopped by intense washing of the dot blot with H₂O. Quantitative evaluation was done based on a densitometric analysis (GS800 densitometer (BioRad) and software package Quantity one, Version 4.5.0 (BioRad)) of the dot intensity. […] This threshold value was determined for every dot blot independently. The calculated value indicates the relation between recognition of Aβ(20-42) globulomer and the respective Aβ form for the given antibody.
(§2) The individual Aβ forms were applied in serial dilutions and incubated with the respective antibodies for immune reaction (1=Aβ(1-42) monomer, 0.1% NH₄OH; 2=Aβ(1-40) monomer, 0.1% NH₄OH; 3=Aβ(1-42) monomer, 0.1% NaOH; 4=Aβ(1-40) monomer, 0.1% NaOH; 5=Aβ(1-42) globulomer; 6=Aβ(12-42) globulomer; 7=Aβ(20-42) globulomer; 8=Aβ(1-42) fibril preparation; 9=sAPPα (Sigma); (first dot: 1 pmol)).

Aβ(12-42) globulomer = biological target: T1, Aβ(12-42) globulomer
Experimental: as §1, §2

[1] = biological target: T3, Aβ(1-40) monomer in 0.1% NH4OH (human)
T3 construct: The range counts on the Aβ peptide; also called Aβ(1-40) monomer, 0.1% NH4OH
T3 sequence (peptide, as listed by the source): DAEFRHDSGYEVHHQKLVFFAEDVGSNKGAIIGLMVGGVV
Experimental: as §1, §2

[2] = biological target: T4, Aβ(1-42) monomer in 0.1% NaOH (human)
T4 construct: also called Aβ(1-42) monomer, 0.1% NaOH
Experimental: as §1, §2

Aβ(1-42) fibril = biological target: T5, Aβ(1-42) fibril (human, UniProt P05067 672-713)
T5 construct: also called Aβ(1-42) fibrils; Aβ(1-42) fibril preparation
Experimental: as §1, §2

[3] = biological target: T6, Aβ(1-42) monomer in 0.1% NH4OH (human)
T6 construct: The range counts on the Aβ peptide; also called Aβ(1-42) monomer, 0.1% NH4OH
Experimental: as §1, §2

| Binder | dot blot relation of recognition of Aβ(20-42) globulomer to recognition of this Aβ form (Aβ(1-42) globulomer) | dot blot relation of recognition of Aβ(20-42) globulomer to recognition of this Aβ form (Aβ(12-42) globulomer) | dot blot relation of recognition of Aβ(20-42) globulomer to recognition of this Aβ form [1] | dot blot relation of recognition of Aβ(20-42) globulomer to recognition of this Aβ form [2] | dot blot relation of recognition of Aβ(20-42) globulomer to recognition of this Aβ form (Aβ(1-42) fibril) | dot blot relation of recognition of Aβ(20-42) globulomer to recognition of this Aβ form [3] |
| --- | --- | --- | --- | --- | --- | --- |
| B1 | 57000 | 41000 |  |  |  |  |
| B2 | 30000 | 60000 | 27300 | 39500 | 32600 | 36000 |
| B3 |  | 6 |  |  |  |  |

Reference: patent publication US20150368299A1 (published 2015)
